The data set addresses Dengue virus envelope protein domain III (ED3), on intact DENV serotype 2 virions (Dengue virus 2 (New Guinea C), UniProt P14340 P14340:576-674). Description: inhibition; plaque reduction on Vero cells, DENV2 NGC in human serum, 37 C. Particulars: protein: virion; tags: none. How it is done:
The in vitro inhibition of DENV through standard antiviral, plaque forming EC₅₀ assays was also examined. DENV viral particles were incubated with different concentrations of each inhibitor in human serum and the remaining infectivity was determined by a plaque reduction assay. The dose-dependent inhibition of DENV for the monovalent aptamer and each of the scaffold-aptamer complexes was examined (FIG. 5A). The EC₅₀ value (half maximal effective concentration) of the scaffold for DENV infection inhibition was 2 nM, whereas the EC₅₀ value of the monovalent aptamer was 15 μM (FIG. 5B).
For the in vitro inhibition of DENV (EC₅₀ and plaque assays), vero cells were seeded at a density of 3×10⁵ cells/3 mL MEM culture medium (with 10% FBS) in each well of a 6-well plate 72 h prior to infection. Approximately 200 plaque forming units of DENV serotype 2 (DENV2 NGC), after dilution in Hank's Balanced Salt Solution (HBSS) (GIBCO, Grand Island, N.Y.) including 0.4% (w/v) bovine albumin fraction V (BSA fraction V, GIBCO), were incubated at a 1:1 ratio in human serum (with or without an inhibitor). The mixtures were incubated in a 5% CO₂ incubator at 37° C. for 1 h. Then virus-inhibitor or virus-control mixtures were used directly to infect the confluent monolayer of Vero cells or diluted in MEM+2% FBS before being added onto the Vero cell monolayers. The inoculum was 100 μl/well. […]

Among the data in US20230212643, “DNA NANOARCHITECTURES FOR PATTERN-RECOGNIZED […] OF DISEASES” (RENSSELAER POLYTECHNIC INSTITUTE, published 2023) are EC50 values, retold here.

Dengue virus envelope protein domain III (ED3), on intact DENV serotype 2 virions, sequence (P14340 576-674, one chain of several): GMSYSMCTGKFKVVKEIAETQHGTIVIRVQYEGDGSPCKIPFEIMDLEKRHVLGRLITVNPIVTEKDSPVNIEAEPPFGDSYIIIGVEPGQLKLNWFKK

B1: monovalent ED3-binding DNA aptamer (ssDNA)
DNA: GCACCGGGAGGGAGGGAGGGCTTTT
In turn, B1 had a concentration for a half-maximal effect (EC50) of 15 µM.

The term EC50 denotes the concentration at which the effect is half-maximal. Read a low EC50 as an effect from little substance.
